Results on 1 molecule are retold here after patent publication US20090068207A1, “Compositions Containing Beta 2-Glycoprotein I-Derived Peptides for the Prevention and/or Treatment of Vascular Disease” (Vascular Biogenics Ltd., priority 2005, published 2009).

Test [1] deals with inguinal lymph node cells. Kind of test: Lymph node cell proliferation (stimulation index) to sensitizing antigen β2GPI after mucosal administration. The class given is in vivo, mice. The protocol: Immunization: Subcutaneous immunization with human β2GPI: Human β2GPI was prepared from human plasma pool as described above. For immunization, human β2GPI was dissolved in PBS and mixed with equal volumes of Freund's incomplete adjuvant. Immunizations were performed by single subcutaneous injection of 10 μg antigen/mouse in 0.1 ml volume. Three days following the last mucosal administration of plaque associated molecules the mice received one immunization, and were sacrificed 10 days post immunization.
Proliferation assays: Mice were exposed to the tested antigen as described for assessment of atherosclerosis, and then immunized (one to three days following the last exposure) subcutaneously with 10 μg β2GPI in 0.1 ml PBS, prepared from purified human β2GPI as described above.
Proliferation was assayed ten days after immunization with the β2GPI as follows: Draining inguinal lymph nodes were prepared by mashing the tissues on 100 mesh screens. Red blood cells were lysed with cold sterile double distilled water (6 ml) for 30 seconds and 2 ml of NaCl 3.5% was added. Incomplete medium was added (10 ml), cells were centrifuged for 7 min at 1,700 rpm, resuspended in RPMI medium and counted in a haemocytometer at 1:20 dilution (10 μl cells+190 μl Trypan Blue). Proliferation was measured by the incorporation of [^3H] Thymidine into DNA in triplicate samples of 100 μl of the packed cells (1×10^6 cells/ml) in a 96 well microtiter plate. […] Thymidine (0.5 μCi/well) was added. After an additional 12-24 hours of incubation the cells were harvested and transferred to glass fiber filters using a cell harvester (Brandel) and counted using β-counter (Lumitron). Proliferation was measured by the incorporation of [^3H] thymidine into DNA during the final 12 h of incubation. The results are expressed as the stimulation index (S.I.): the ratio of the mean radioactivity (cpm) of the antigen to the mean background (cpm) obtained in the absence of the antigen. Standard deviation was always <10% of the mean cpm.
Tolerance induced by mucosal exposure to plaque-associated molecules may be mediated by suppression of specific immune responses to antigenic portions (epitopes) of these plaque associated molecules. Lymphocyte proliferation in response to mucosal (nasal and oral) exposure to human β2GPI was measured in […]. 9 male, 5 week old LDL-RD mice were divided into 3 groups. In group A (n=3) oral tolerance was induced with 100 μg/mouse β2GPI suspended in 0.1 ml PBS, administered by gavage, as described above, every other day for 5 days. In group B (n=3) nasal tolerance was induced with 10 μg/mouse β2GPI suspended in 10 μl PBS, administered intranasally as described above, every other day for 5 days. The mice in group C (n=3) received oral administration of 200 μl PBS every other day for 5 days. Immune reactivity was stimulated in all mice by immunization with human β2GPI as described above in the Materials and Methods section, one day after the last feeding. Ten days after the immunization lymph nodes were collected for assay of proliferation (as expressed in the Stimulation Index SI). All mice were fed normal chow-diet containing 4.5% fat by weight (0.02% cholesterol) and water ad libitum.

In the next test the test system is atherosclerotic lesions. Kind of test: Immunohistochemistry of atherosclerotic lesions (β2GPI, CD3, Mac-1). Type of test: in vivo, mice. The source says:
Immunohistochemistry of atherosclerotic lesions: Immunohistochemical staining for CD3, macrophages and β2GPI content were done on aortic sinus 5-μm-thick frozen sections. Primary antibodies used for probing were rat anti-mouse CD3, rat anti-mouse Mac-1 and a polyclonal rat anti-mouse β2GPI antibodies (George et al Circulation 2000; 102:1822-7). Slides were developed with the three amino-9-ethylcarbonasole (AEC) substrate. Sections were counterstained with hematoxylin. Spleen sections were used as a positive control. Staining in the absence of 1st or 2nd antibody was used as a negative control. β2GPI presence were evaluated by its occupancy of plaque area by computerized morphometry as described previously for VCAM-1 (George et al, Circ Res. 2000; 86:1203-10).
No effect of oral β2GPI on the number of CD3 positive cells (0-5 cells/plaque in all groups; data not shown) or macrophage (Mac-1 positive) content of the fatty streaks was observed.

Test [2] concerns lymph node cells. Kind of test: Lymph node cell proliferation (stimulation index) to oxLDL after oral administration. Type of test: in vivo, mice. Here is the method:
Proliferation was measured by the incorporation of [^3H] thymidine into DNA during the final 12 h of incubation. The results were computed as stimulation index: the ratio of the mean cpm of the antigen to the mean background cpm obtained in the absence of the antigen.
[…] Three days after the final administration of peptides, the mice were immunized with OxLDL in incomplete Freund's adjuvant, as described in the Examples above, and lymph node cells assessed for antigen (OxLDL) stimulation of proliferation 10 days later. Proliferation was assessed by incorporation of thymidine, expressed as the Stimulation Index, as described.

The test system of test [3] is lymph node cells. Kind of test: Cytokine secretion by lymph node cells of tolerized mice (ELISA of conditioned medium). Type of test: in vivo. The protocol: IFN-γ, IL-4, IL-10 and TGF-β secretion in tolerized lymph nodes: Conditioned medium was obtained from the lymph node proliferation experiments following 48 h of culture in the presence of β2GPI.
Test [4] has as its system anti-β2GPI antibodies and antibody isotypes. Kind of test: Serum antibody levels and isotypes (ELISA). Type of test: in vivo, mice. The conditions noted are these: oral administration, subsequently immunized with β2GPI; data not shown. Here is the method:
Detection of anti-b2GPI antibodies and antibody isotypes: β2GPI (10 μg/ml) was coated onto flat bottom 96-well ELISA plates (Nalge-Nunc, Int. Rochester, N.Y.) by overnight incubation and the assay was performed as previously described (George et al, Circulation, 1998; 15:1108-15) IgG, IgA and IgM isotypes in the sera of β2GPI tolerant and non-tolerant mice were determined by an ELISA kit (Southern Biotechnology Associates, Birmingham, Ala., USA) according to the manufacture's instructions.
None of the orally-administered antigens induced production of antiβ2GPI antibodies (data not shown).
A general note: In an ELISA, binding on a coated surface is turned into a signal by an enzyme label.

For test [5], the system named is LDL receptor deficient mice. Particulars: oral administration, U.S. Ser. No. 09/806,400; cited from earlier work.

A value given as a limit tells only on which side of the number the result lay.

B1: β2GPI: beta2-glycoprotein I, species not stated at the place (human or bovine; FIG. 7 legend says bovine) (protein, UniProt P17690 20-345, looked up)
Beta-2-glycoprotein 1: GRTCPKPDELPFSTVVPLKRTYEPGEQIVFSCQPGYVSRGGIRRFTCPLTGLWPINTLKCMPRVCPFAGILENGTVRYTTFEYPNTISFSCHTGFYLKGASSAKCTEEGKWSPDLPVCAPITCPPPPIPKFASLSVYKPLAGNNSFYGSKAVFKCLPHHAMFGNDTVTCTEHGNWTQLPECREVRCPFPSRPDNGFVNHPANPVLYYKDTATFGCHETYSLDGPEEVECSKFGNWSAQPSCKASCKLSIKRATVIYEGERVAIQNKFKNGMLHGQKVSFFCKHKEKKCSYTEDAQCIDGTIEIPKCFKEHSSLAFWKTDASDVKPC
Consider B1, for which, in test [1] (mucosal administration to LDL-RD mice, Examples 3 and 6), the “reduction of the stimulation index of lymph node cells” value is “up to 70%”. The “suppression of primary cellular response (lymph node cell proliferation) to β2GPI” value in test [1] (oral 5 doses of 500 μg per mouse, stimulation with 2.0 μg/ml β2GPI, LDL-RD mice) is reported as above 60%. Also, the “influence on primary cellular response to BSA” value in test [1] (oral administration, mice immunized with BSA, results not shown) is “did not influence”. Further, in the test on atherosclerotic lesions (oral 500 μg/dose, LDL-RD mice, data not shown), the “content of plaque-expressed β2GPI, mean percent occupancy” value was 15±5%. The “effect on number of CD3 positive cells or macrophage (Mac-1 positive) content of the fatty streaks” value with atherosclerotic lesions (oral administration, LDL-RD mice) was “No effect”. In addition, the “number of CD3 positive cells” value in the test on atherosclerotic lesions (oral administration, all groups, data not shown) is 0-5 cells/plaque. Moreover, the “suppression of primary cellular response (lymph node cell proliferation) to oxLDL” value in the test on lymph node cells [2] (oral 5 doses of 500 μg per mouse, stimulation with 20 μg/ml oxLDL, LDL-RD mice) amounted to 74%. Also, in the test with lymph node cells [2] (oral, 3 doses of 100 μg, LDL-RD mice immunized with OxLDL), the “reduction in Stimulation Index of OxLDL-sensitized lymph node cells” value amounted to 87%. Besides, the “TGF-β levels in the conditioned medium of lymph node cells” value with lymph node cells [3] (cells from β2GPI-tolerized mice) is on record as “below the detection threshold”. The “levels of IFN-γ secreted by lymph node cells” value in the test on lymph node cells [3] (cells from β2GPI-tolerized mice, stimulation with β2GPI, mean value) came to 1802 ± 588 pg/mL. In addition, the “Levels of IL-4 in medium relative to control animals” value in the test with lymph node cells [3] (oral administration, immunized with β2GPI, cells incubated 48 h with β2GPI, p<0.01) is given as “three times higher”. The “IL-10 secretion relative to BSA-treated controls” value in the test on lymph node cells [3] (oral administration, immunized with β2GPI, in-vitro priming with β2GPI, p<0.05) is 2.6 times. Moreover, the “IgM, IgA, or IgG total antibody levels and isotype distribution” value in test [4] was “did not alter”. Besides, the “reduction in atherogenesis by oral tolerance” value in test [5] is on record as “approximately 30%”.
